# Test results as given in US20250136696A1 (HARBOUR BIOMED SHANGHAI, published 2025).
# T1: human B7-H7 on the cell surface (human, UniProt Q9UM44 23-414)
# T1 construct: whole, on cells; also called hB7-H7; hu B7-H7
# T1 sequence (looked up): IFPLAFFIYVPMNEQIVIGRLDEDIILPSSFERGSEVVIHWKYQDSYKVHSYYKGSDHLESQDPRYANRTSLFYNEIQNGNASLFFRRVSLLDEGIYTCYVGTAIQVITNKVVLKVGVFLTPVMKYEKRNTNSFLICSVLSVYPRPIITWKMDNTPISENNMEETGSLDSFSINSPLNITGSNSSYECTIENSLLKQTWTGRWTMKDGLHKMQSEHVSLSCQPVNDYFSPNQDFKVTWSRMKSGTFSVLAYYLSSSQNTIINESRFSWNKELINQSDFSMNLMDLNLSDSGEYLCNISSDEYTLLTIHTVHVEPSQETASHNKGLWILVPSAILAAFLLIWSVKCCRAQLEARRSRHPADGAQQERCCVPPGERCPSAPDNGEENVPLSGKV
# B1: PR004263 (antibody, human IgG1, kappa, L234A L235A)
# heavy: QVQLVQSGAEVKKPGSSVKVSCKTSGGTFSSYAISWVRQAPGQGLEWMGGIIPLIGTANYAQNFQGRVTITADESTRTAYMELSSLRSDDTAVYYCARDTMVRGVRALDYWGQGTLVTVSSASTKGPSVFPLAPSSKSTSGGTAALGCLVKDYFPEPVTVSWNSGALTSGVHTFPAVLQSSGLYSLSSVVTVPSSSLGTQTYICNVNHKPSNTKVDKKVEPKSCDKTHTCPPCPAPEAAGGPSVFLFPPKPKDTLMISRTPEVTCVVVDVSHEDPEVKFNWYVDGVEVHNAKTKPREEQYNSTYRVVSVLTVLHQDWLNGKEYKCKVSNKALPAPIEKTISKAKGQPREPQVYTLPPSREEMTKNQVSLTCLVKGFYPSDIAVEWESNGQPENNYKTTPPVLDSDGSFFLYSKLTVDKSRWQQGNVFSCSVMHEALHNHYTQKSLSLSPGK
# light: DIQLTQSPSFLSASVGDRVTITCRASQGISSYFAWYQQKPGKAPKLLIYAASTLQSGVPSRFSGSGSGTEFTLTISSLQPEDFATYYCQHLNRYPWTFGQGTKVEIKRTVAAPSVFIFPPSDEQLKSGTASVVCLLNNFYPREAKVQWKVDNALQSGNSQESVTEQDSKDSTYSLSSTLTLSKADYEKHKVYACEVTHQGLSSPVTKSFNRGEC
# notes: Variant of PR003264; Human IgG1 with LALA mutation in Fc
# Target: T1, human B7-H7 on the cell surface
# Test: flow cytometry on HEK-293/hB7-H7 cells after 0-14 days in 90% human serum at 37 C
# Method: The cells were adjusted to a cell density of 1×10⁶ cells/mL, respectively. The cells were seeded in a 96-well V-bottom plate (Corning, #3894) at 100 μL/well, and the antibody to be tested at 2× final concentration with 3-fold concentration gradient dilution was then added at 100 μL/well. The cells were incubated at 4° C. for 2 hours in the dark. After the incubation, the cells were rinsed twice by adding pre-chilled PBS containing 2% BSA at 100 μL/well, and centrifuged at 500 g at 4° C. for 5 minutes, and the supernatant was discarded. […] The cells were washed twice by adding pre-chilled PBS containing 2% BSA at 100 μL/well, and centrifuged at 500 g at 4° C. for 5 minutes, and the supernatant was discarded. Finally, the cells were resuspended in pre-chilled PBS containing 2% BSA at 200 μL/well, and the fluorescence signal values were read using an ACEA Novocyte3000 flow cytometer.
binder,measurement,value
B1,EC50 (read off the curve),~1 nM
